For two molecules, binding result and Kd results are on record in PMC2788276 (Protein Science : A Publication of the Protein Society, 2009).

Data set [1] concerns the molecule itself. The data set can be described thus: cross-linking.
Data set [2] deals with HCoV-OC43 N301-448 (C-terminal domain) (Human coronavirus OC43, UniProt P33469 301-448). The experiment in a line: SPR. On the technique in general: SPR reads the build-up and loss of mass on a sensor chip optically.
Data set [3] addresses HCoV-OC43 N1-173 (N-terminal domain) (Human coronavirus OC43, UniProt P33469 1-173). The experiment in a line: SPR.
In data set [4] the target is HCoV-OC43 N233-300 (central linker) (Human coronavirus OC43, UniProt P33469 233-300). The data set can be described thus: SPR.

Sequence of HCoV-OC43 N1-173 (N-terminal domain) (P33469 1-173): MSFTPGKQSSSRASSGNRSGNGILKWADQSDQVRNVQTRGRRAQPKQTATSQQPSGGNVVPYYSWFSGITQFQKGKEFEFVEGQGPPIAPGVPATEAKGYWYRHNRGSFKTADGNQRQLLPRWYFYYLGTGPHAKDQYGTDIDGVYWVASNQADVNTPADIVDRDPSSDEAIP

B1: HCoV‐OC43 N protein, residues 233–448 (domain or fragment)
chain: ADQIASLVLAKLGKDATKPQQVTKHTAKEVRQKILNKPRQKRSPNKQCTVQQCFGKRGPNQNFGGGEMLKLGTSDPQFPILAELAPTAGAFFFGSRLELAKVQNLSGNPDEPQKDVYELRYNGAIRFDSTLSGFETIMKVLNENLNAYQQQDGMMNMSPKPQRQRGHKNGQGENDNISVAVPKSRVQQNKSRELTAEDISLLKKMDEPYTEDTSEI
For the molecule B1, the binding result in data set [1] is “binds”.

B2: (UCUAAAC)4 intergenic repeat RNA (ssRNA)
RNA: UCUAAACUCUAAACUCUAAACUCUAAAC
For orientation: Kd means the constant that tells how readily two partners part at equilibrium. Take B2: the binding result in data set [2] is listed as “no binding”. Besides, the Kd worked out at 68.9 ± 8.4 nM in data set [3] and 64.1 ± 7.2 nM in data set [4].
